Source: the supplement of paper PMC10724198
± gives the standard deviation of the averaged measurements.

Tested on: Saccharomyces cerevisiae
Assay: protein stability index of tFT-peptide fusion (C-terminal peptide) (PSI (0-1 scale)); higher = more stable (slower turnover)
Conditions: temperature: 30 C
Method: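 MPS profiling in S. cerevisiae of the yeast C-terminome library: the last 12 aa of each annotated ORF are fused to the C-terminus of a sfGFP-mCherry timer, after a GGGS linker. Cells are FACS-sorted into 8 mCherry/sfGFP bins and deep-sequenced. PSI runs from 0 (unstable) to 1 (stable); wild type and das1Δ backgrounds, two technical replicates each.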

[1] = genetic background: das1 deletion

Sequence | protein stability index [1] | protein stability index (genetic background: wild type)
PFKAIFDAVTKE [ARO1 C-terminal 12 aa] | 0.73 ± 0.014 | 0.717 ± 0.021
PFYRTSAESIDF [SLM5 C-terminal 12 aa] | 0.719 ± 0.022 | 0.706 ± 0.034
PGCVIENGTKLY [ADE57 C-terminal 12 aa] | 0.687 ± 0.012 | 0.71 ± 0.011
PIKIIYNNKCPS [YLL006W-A C-terminal 12 aa] | 0.709 ± 0.02 | 0.688 ± 0.0074
PKGGNYVSRYQR [THO2 C-terminal 12 aa] | 0.695 ± 0.012 | 0.6623 ± 0.0015
PKINPLHARKPT [RAD52 C-terminal 12 aa] | 0.7086 ± 0.0022 | 0.7036 ± 0.0028
PKSNMYYSWTQL [ORC4 C-terminal 12 aa] | 0.7112 ± 0.0057 | 0.68625 ± 0.00028
PLALFYSHLILL [YGR151C C-terminal 12 aa] | 0.6 ± 0.019 | 0.27 ± 0.016
PLGVQFLDTFRR [DSC2 C-terminal 12 aa] | 0.718 ± 0.013 | 0.736 ± 0.051
PLHFQLIWLPIF [YML099W-A C-terminal 12 aa] | 0.5232 ± 0.00075 | 0.505 ± 0.012
PLKFPLPLKPPL [YHL034W-A C-terminal 12 aa] | 0.715 ± 0.018 | 0.699 ± 0.022
PLMFHCTRWEVD [GEP5 C-terminal 12 aa] | 0.6911 ± 0.0033 | 0.741 ± 0.064
PLPDLDEDDGEE [DOM34 C-terminal 12 aa] | 0.686 ± 0.0069 | 0.704 ± 0.041
PLSASWCTSLVT [YHR173C C-terminal 12 aa] | 0.696 ± 0.0087 | 0.671 ± 0.0088
PNFGFLILNSEP [YAL064W C-terminal 12 aa] | 0.73226 ± 0.00022 | 0.68 ± 0.014
PNILLAFSYTAW [YNL170W C-terminal 12 aa] | 0.532 ± 0.017 | 0.5663 ± 0.0014
PPPPSRKCGTPK [LDB17 C-terminal 12 aa] | 0.713 ± 0.038 | 0.7238 ± 0.0025
PSMTTTNFSAFM [ECM22 C-terminal 12 aa] | 0.698 ± 0.008 | 0.697 ± 0.058
PSPTALANLARK [SGF29 C-terminal 12 aa] | 0.677 ± 0.039 | 0.693 ± 0.041
PSSKAPSPGVNT [TEM1 C-terminal 12 aa] | 0.677 ± 0.017 | 0.64 ± 0.026
PTPPGLQGPPGL [MSL5 C-terminal 12 aa] | 0.692 ± 0.018 | 0.693 ± 0.0097

Sequence | protein stability index [1] | protein stability index (genetic background: wild type)
PVSESSSPNSWP [YDR230W C-terminal 12 aa] | 0.768 ± 0.012 | 0.706 ± 0.02
QAADKRIDRNNP [SRD1 C-terminal 12 aa] | 0.7185 ± 0.0037 | 0.702 ± 0.022
QDELDAMKEMGF [CSM3 C-terminal 12 aa] | 0.698 ± 0.023 | 0.699 ± 0.049
QDRSCSWLKLLL [YLR171W C-terminal 12 aa] | 0.685 ± 0.021 | 0.704 ± 0.021
QEISYKFSKTYS [IME1 C-terminal 12 aa] | 0.676 ± 0.021 | 0.664 ± 0.038
QELISLIDVINQ [RNH203 C-terminal 12 aa] | 0.7225 ± 0.005 | 0.739 ± 0.035
QFKQILENYRPT [VPS38 C-terminal 12 aa] | 0.664 ± 0.0088 | 0.7348 ± 0.0013
QIVGLLKLLASI [PEX15 C-terminal 12 aa] | 0.68 ± 0.036 | 0.405 ± 0.038
QIVGRYVVDTSK [ADH1 C-terminal 12 aa] | 0.6827 ± 0.0057 | 0.683 ± 0.015
QKIDNALKMTGR [YDR102C C-terminal 12 aa] | 0.6896 ± 0.0062 | 0.705 ± 0.0095
QKLHAIDGEDEL [GPI17 C-terminal 12 aa] | 0.688 ± 0.017 | 0.649 ± 0.028
QLQDLLSSENNK [AIM11 C-terminal 12 aa] | 0.7169 ± 0.0021 | 0.688 ± 0.032
QNYPIVSFSRVI [OSW1 C-terminal 12 aa] | 0.7236 ± 0.0058 | 0.685 ± 0.012
QPINLDSISDDL [DRE2 C-terminal 12 aa] | 0.7068 ± 0.0039 | 0.766 ± 0.12
QQYFQEPQQGQY [MCM1 C-terminal 12 aa] | 0.676 ± 0.0068 | 0.703 ± 0.077
QSATKNQQNQGK [SSQ1 C-terminal 12 aa] | 0.679 ± 0.011 | 0.656 ± 0.01
QSKNIEIFSQIK [YGR067C C-terminal 12 aa] | 0.71 ± 0.031 | 0.695 ± 0.018
QSQYSSRFVELD [MCO12 C-terminal 12 aa] | 0.691 ± 0.015 | 0.6892 ± 0.0068
QVKLSILKSLGF [UBC7 C-terminal 12 aa] | 0.702 ± 0.02 | 0.657 ± 0.0096
QVTAVVVSYQGV [ATG11 C-terminal 12 aa] | 0.5882 ± 0.0024 | 0.5999 ± 0.0039
RAGSHSVGLLPM [UIP5 C-terminal 12 aa] | 0.6976 ± 0.0019 | 0.6835 ± 0.0029

Sequence | protein stability index [1] | protein stability index (genetic background: wild type)
RAQPGRKRKHKK [RSC58 C-terminal 12 aa] | 0.743 ± 0.019 | 0.696 ± 0.0068
RDGQKTSLIRLI [YBR259W C-terminal 12 aa] | 0.711 ± 0.035 | 0.57 ± 0.11
REETEKLNINKD [YAR1 C-terminal 12 aa] | 0.71 ± 0.014 | 0.66 ± 0.067
REVREIHEMYCK [YKR012C C-terminal 12 aa] | 0.696 ± 0.034 | 0.6885 ± 0.0035
RGDDGESYAYLA [CDC53 C-terminal 12 aa] | 0.69274 ± 0.00042 | 0.691 ± 0.0089
RGFSFMPDDLDL [PKC1 C-terminal 12 aa] | 0.722 ± 0.013 | 0.72 ± 0.028
RHQGQNIYRSGV [MCM5 C-terminal 12 aa] | 0.682 ± 0.03 | 0.674 ± 0.022
RHSMSEEELEMY [KTR4 C-terminal 12 aa] | 0.689 ± 0.034 | 0.685 ± 0.044
RKFSSSTNLAKF [TOS8 C-terminal 12 aa] | 0.779 ± 0.039 | 0.81 ± 0.012
RKGWTGFKKVFK [GYP5 C-terminal 12 aa] | 0.695 ± 0.025 | 0.699 ± 0.061
RLAKKVARRNAD [RPS24A C-terminal 12 aa] | 0.693 ± 0.0097 | 0.683 ± 0.024
RLGDVLHVCCPS [YHL049C C-terminal 12 aa] | 0.717 ± 0.03 | 0.7 ± 0.097
RLKSSVICSGTS [YLR399W-A C-terminal 12 aa] | 0.68237 ± 6.9e-05 | 0.664 ± 0.015
RMSNGLYTISMS [YPR050C C-terminal 12 aa] | 0.694 ± 0.017 | 0.6869 ± 0.0011
RNLLSTYHPMLM [YLR124W C-terminal 12 aa] | 0.679 ± 0.0082 | 0.665 ± 0.0023
RNRLENISTMVI [YIA6 C-terminal 12 aa] | 0.71 ± 0.012 | 0.709 ± 0.019
RPWYVRQFHFWC [TAT2 C-terminal 12 aa] | 0.713 ± 0.0097 | 0.538 ± 0.011
RQRRLQAAGRWF [PCP1 C-terminal 12 aa] | 0.716 ± 0.014 | 0.6854 ± 0.0044
RRKITLIEDDEE [SAS3 C-terminal 12 aa] | 0.715 ± 0.011 | 0.672 ± 0.019
RRLKNKQRTRFQ [YNR021W C-terminal 12 aa] | 0.7264 ± 0.0013 | 0.698 ± 0.023
RRMKLKERKRTT [YBL029W C-terminal 12 aa] | 0.713 ± 0.022 | 0.655 ± 0.05

Sequence | protein stability index [1] | protein stability index (genetic background: wild type)
RRNRGTPVKYTR [DOT1 C-terminal 12 aa] | 0.6965 ± 0.0024 | 0.7 ± 0.016
RSHKCYPHDVRF [NAT3 C-terminal 12 aa] | 0.7614 ± 0.0011 | 0.662 ± 0.024
RSVGKNSEKVST [QDR1 C-terminal 12 aa] | 0.6986 ± 0.0019 | 0.695 ± 0.01
RTANVVGLDVPT [FMC1 C-terminal 12 aa] | 0.683 ± 0.017 | 0.6639 ± 0.0044
RTAYILMYQKRN [UBP3 C-terminal 12 aa] | 0.782 ± 0.014 | 0.1351 ± 0.00015
RTLTTGNYHGLA [SYP1 C-terminal 12 aa] | 0.6833 ± 0.0056 | 0.6781 ± 0.0046
RVRRRLFAPEST [SLD3 C-terminal 12 aa] | 0.716 ± 0.018 | 0.802 ± 0.075
RYRLSQRQESKK [MRX4 C-terminal 12 aa] | 0.698 ± 0.011 | 0.682 ± 0.021
SAIENYRKAYGI [URA10 C-terminal 12 aa] | 0.664 ± 0.038 | 0.69935 ± 0.00068
SALILMYKGFGL [UBP6 C-terminal 12 aa] | 0.664 ± 0.022 | 0.683 ± 0.015
SALNKIKADEKK [ACO1 C-terminal 12 aa] | 0.689 ± 0.024 | 0.684 ± 0.024
SDEEPSSKKRKV [VPS75 C-terminal 12 aa] | 0.703 ± 0.035 | 0.678 ± 0.01
SDQKGGRSVSTS [YLR001C C-terminal 12 aa] | 0.6896 ± 0.0021 | 0.734 ± 0.017
SEGLQFLQREKK [MSE1 C-terminal 12 aa] | 0.711 ± 0.011 | 0.681 ± 0.011
SEVKGYSKLNIV [ASI3 C-terminal 12 aa] | 0.695 ± 0.026 | 0.668 ± 0.035
SFFIYVNFTVYF [YCR001W C-terminal 12 aa] | 0.175 ± 0.036 | 0.178 ± 0.033
SFHKEFFDQYRD [ALT1 C-terminal 12 aa] | 0.7326 ± 0.0045 | 0.774 ± 0.048
SFVKIQDAIKKT [MRPL9 C-terminal 12 aa] | 0.7417 ± 0.0063 | 0.627 ± 0.015
SGETSDIIFRNY [ADK2 C-terminal 12 aa] | 0.74 ± 0.023 | 0.786 ± 0.012
